From paper PMC9440244, “Structures and implications of the nuclease domain of human parvovirus B19 NS1 protein”

B1: 67-ori-top (ssDNA)
DNA: AAAATTTAAAAGAAGACACCAAATCAGATGCCGCCGGTCGCCGCCGGTAGGCGGGACTTCCGGTACA
B2: 67-ori-top/40-ori-bot (mixed)
DNA 1: B1 DNA
DNA 2: TGTACCGGAAGTCCCGCCTACCGGCGGCGACCGGCGGCAT

Biological target: NS1_Nuc WT (nuclease domain of NS1) (human parvovirus B19 (variant …, UniProt A0A097C0M3 2-176))
Assay: EMSA; 1 mM EDTA
Conditions: protein: recombinant, tags: His-SUMO removed by ULP1

Binder	Kd (label: 5'-FAM, single strand)	Kd (label: 5'-FAM on 67-ori-top, partial duplex over NSBE1-NSBE4, top strand single-stranded elsewhere)
B1	12.3 µM	–
B2	–	~1 µM
